Data taken from PMC9287160.

Target: αMβ2 expressed on K562 cells (human) (UniProt P11215)
Assay: flow cytometry on cells; αMβ2/K562 cells, 45 min with 10 μg/ml Alexa Fluor 488-iC3b and 0, 1, 5 or 10 μg/ml hCD11bNb1; 1 mM Ca2+ and 1 mM Mg2+, with or without 1 mM Mn2+

Substance: Alexa Fluor 488-conjugated iC3b (from UniProt P01024 23-667; P01024 1321-1663) (ligand)
- fold increase of iC3b* binding in the presence of hCD11bNb1 against none: 2 fold
